The values that follow come from the Immune Epitope Database (IEDB).

A word on the Kd: it is the constant that tells how readily two partners part at equilibrium.

One assay addresses HLA-B*15:01. As to the kind of experiment: IEDB peptide-MHC binding, purified MHC/competitive/radioactivity; filed as Kd, often an IC50 or EC50 that approximates it; ≥ and ≤ were set here for values at or beyond the usual limits of such assays.
For assay [1], the target named is HLA-A*01:01. The assay is described as above.
The target of the next assay is HLA-A*30:02. The description is as above.
For a further assay, the target named is HLA-B*35:01. The description is as above.
Another assay has as its target HLA-B*57:01. As to the kind of experiment: IEDB peptide-MHC binding, purified MHC/direct/fluorescence; filed as Kd, often an IC50 or EC50 that approximates it; ≥ and ≤ were set here for values at or beyond the usual limits of such assays.
A further assay has as its target HLA-B*58:01. The description is as above. Conditions: source organism: Burkholderia lata.
The target in the next assay is HLA-A*32:01. The assay is described as follows: IEDB peptide-MHC binding, purified MHC/competitive/radioactivity; filed as Kd, often an IC50 or EC50 that approximates it; ≥ and ≤ were set here for values at or beyond the usual limits of such assays.
The target of assay [2] is HLA-A*03:01. Described as above. Particulars: source organism: Vaccinia virus WR.
Assay [3] concerns the target HLA-A*11:01. The description is as above. Conditions: source organism: Vaccinia virus WR.
The target in assay [4] is HLA-A*31:01. The assay is described as above. Conditions: source organism: Vaccinia virus WR.
The next assay concerns the target HLA-A*33:01. The description is as above. Conditions: source organism: Vaccinia virus WR.
Another assay has as its target HLA-A*68:01. Described as above. Particulars: source organism: Vaccinia virus WR.
Assay [5] has as its target HLA-A*01:01. The assay is described as follows: IEDB peptide-MHC binding, purified MHC/direct/fluorescence; filed as Kd, often an IC50 or EC50 that approximates it; ≥ and ≤ were set here for values at or beyond the usual limits of such assays. Conditions: source organism: Homo sapiens.
Assay [6] has as its target HLA-A*03:01. The description is as above. Particulars: source organism: Homo sapiens.
For assay [7], the target named is HLA-A*11:01. The description is as above. Particulars: source organism: Homo sapiens.
For assay [8], the target named is HLA-A*31:01. Described as above. Particulars: source organism: Homo sapiens.
Another assay deals with HLA-A*69:01. Described as above. Conditions: source organism: Homo sapiens.
A further assay addresses HLA-B*27:05. The assay is described as above. Particulars: source organism: Homo sapiens.
The target of assay [9] is HLA-A*26:01. The assay is described as follows: IEDB peptide-MHC binding, purified MHC/competitive/radioactivity; filed as Kd, often an IC50 or EC50 that approximates it; ≥ and ≤ were set here for values at or beyond the usual limits of such assays.
Another assay has as its target HLA-B*44:03. Described as above.
Assay [10] deals with HLA-A*26:01. The assay is described as follows: IEDB peptide-MHC binding, purified MHC/direct/fluorescence; filed as Kd, often an IC50 or EC50 that approximates it; ≥ and ≤ were set here for values at or beyond the usual limits of such assays.
A further assay addresses HLA-B*53:01. The assay is described as follows: IEDB peptide-MHC binding, purified MHC/competitive/radioactivity; filed as Kd, often an IC50 or EC50 that approximates it; ≥ and ≤ were set here for values at or beyond the usual limits of such assays. Conditions: source organism: Dengue virus 1 Brazil/97-11/1997.
A further assay concerns the target HLA-A*24:03. The assay is described as follows: IEDB peptide-MHC binding, purified MHC/direct/fluorescence; filed as Kd, often an IC50 or EC50 that approximates it; ≥ and ≤ were set here for values at or beyond the usual limits of such assays. Particulars: source organism: Mycobacterium tuberculosis.
Where [11] appears, read: source organism: Vaccinia virus WR.
Where [12] appears, read: source organism: Dengue virus 4 Philippines/H241/1956.
Where [13] appears, read: source organism: Dengue virus 1 Brazil/97-11/1997.
Where [14] appears, read: source organism: Dengue virus 2 Jamaica/1409/1983.
Setting [15] is: source organism: Vaccinia virus Copenhagen.
The mark [16] stands for this setting: source organism: Dengue virus 4 Dominica/814669/1981.
[17] abbreviates: source organism: Dengue virus 2 16681-PDK53.

Regarding ELNNTQCHI, the Kd with HLA-B*15:01 (setting [11]) worked out at 1240 nM. FSQHNYRQGY: the Kd in the assay with HLA-A*01:01 [1] (setting [12]) was 210 nM; with HLA-A*30:02 (setting [12]), 1250 nM; with HLA-B*15:01 (setting [12]), 135 nM; with HLA-B*35:01 (setting [12]), ≥ 45400 nM.

Regarding LLFNSSFCI, the Kd with HLA-B*15:01 (setting [11]) is 104 nM. As to ETLWSPWKL, the values for the Kd with HLA-B*57:01 (source organism: Burkholderia lata) and in the assay with HLA-B*58:01 were ≥ 20000 nM and 1410 nM, respectively. Regarding AMEELPDTI, the dissociation constant (Kd) with HLA-A*32:01 (setting [13]) was ≥ 21400 nM. As for LGKSEFQIY, the dissociation constant Kd with HLA-A*30:02 (setting [14]) is ≥ 76900 nM. On to ELCGAFLFY, for which the Kd in the assay with HLA-A*03:01 [2] amounted to 156 nM; with HLA-A*11:01 [3] it was 196 nM; with HLA-A*31:01 [4], 1030 nM; with HLA-A*33:01 it was 13600 nM; with HLA-A*68:01, 277 nM; with HLA-B*15:01 (setting [11]), 7.47 nM. With RSWPLNEGI, the Kd in the assay with HLA-A*32:01 (setting [12]) came out at 491 nM. As to STFSISSIF, the Kd in the assay with HLA-A*32:01 (setting [15]) amounted to 1.05 nM.

Take ITYCLVTHM: the Kd with HLA-B*15:01 (setting [11]) was determined as 25.3 nM. Take KSDPIMLLK: the Kd with HLA-A*01:01 [5] was 345 nM; in the assay with HLA-A*03:01 [6], 381 nM; with HLA-A*11:01 [7], 40.8 nM; in the assay with HLA-A*31:01 [8], 8130 nM; in the assay with HLA-A*69:01, 1500 nM; with HLA-B*27:05 it was 7470 nM. Consider HTTERGGRAY, for which the Kd with HLA-A*01:01 [1] (setting [16]) stood at 145 nM; with HLA-A*26:01 [9] (setting [16]), 345 nM; in the assay with HLA-B*15:01 (setting [16]) it was 220 nM. On to LENENILHG, for which, in the assay with HLA-B*15:01 (setting [15]), the Kd is 309 nM. With LGSSFCLHA, the Kd in the assay with HLA-B*15:01 (setting [11]) is ≥ 25500 nM. Turning to ATAGLHLGF, the Kd with HLA-A*32:01 (setting [15]) is 1.69 nM. In the case of EETNMITLLV, the Kd with HLA-B*44:03 (setting [12]) worked out at 614 nM. Regarding WMINIMIHM, the Kd with HLA-B*15:01 (setting [11]) was determined as 667 nM.

KETACLGKAY: the dissociation constant Kd with HLA-B*44:03 (source organism: Dengue virus 3 Singapore/8120/1995) was 123 nM. Consider AEWLWRTLGR, for which, in the assay with HLA-B*44:03 (source organism: Dengue virus 3 Martinique/1243/1999), the Kd came out at 314 nM.

Take ISYIMLIFF: in the assay with HLA-B*57:01 (source organism: Yellow fever virus), the Kd stood at 2960 nM. Take FSFMYIESI: the Kd with HLA-B*15:01 (setting [11]) turned out to be 191 nM. With GGPISQHNY, the Kd with HLA-A*30:02 (setting [13]) worked out at 473 nM. With MLHCYESYM, the Kd with HLA-B*15:01 (setting [11]) was found to be 97 nM.

In the case of ETIDTIIDQ, the Kd with HLA-A*26:01 [10] (source organism: Mammarenavirus lassaense) amounted to 954 nM. With NEMVLLTMKE, in the assay with HLA-B*44:03 (setting [13]), the Kd turned out to be 5670 nM. Consider LAVSGVYPM, for which the values for the Kd with HLA-B*15:01 (setting [13]), with HLA-B*35:01 (setting [13]) and in the assay with HLA-B*53:01 were 66.4 nM, 16.7 nM and 851 nM, respectively. Turning to VVQPENLEY, the figures for the Kd in the assay with HLA-A*01:01 [1] (setting [17]) and with HLA-A*30:02 (setting [17]) were 381 nM and 2040 nM, respectively. With WNSGHEWVTD, the dissociation constant Kd with HLA-A*32:01 (setting [14]) was ≥ 61800 nM. In the assay with HLA-A*24:03, GWALGYLYF gave a dissociation constant Kd of 24.5 nM. In the case of TLKGMSYVM, the Kd in the assay with HLA-B*15:01 (source organism: Dengue virus 1 Singapore/S275/1990) is 17.6 nM. Turning to PVPGDWLYF, the dissociation constant Kd with HLA-A*26:01 [10] (source organism: Mycobacterium tuberculosis str. Haarlem) was found to be 1290 nM. On to HTTERGGKAY, for which the values for the Kd with HLA-A*01:01 [1] (setting [12]), with HLA-A*26:01 [9] (setting [12]) and in the assay with HLA-B*15:01 (setting [12]) were 4310 nM, 1320 nM and 50.5 nM, respectively. For ILVIFTVAI, the Kd with HLA-A*32:01 (setting [11]) was 15.3 nM. For the sequence IISSTPFAEY, the values for the Kd in the assay with HLA-A*01:01 [1] (setting [12]) and with HLA-A*30:02 (setting [12]) were 3440 nM and 36.9 nM, respectively. For MTDEQIYAF, the Kd with HLA-A*32:01 (setting [11]) came to 17.7 nM. Take PNTNRAWNSL: in the assay with HLA-A*32:01 (setting [14]), the Kd was determined as 1560 nM. Regarding LAMNSVFTF, the Kd with HLA-A*32:01 (setting [15]) turned out to be 16.1 nM. For the sequence LTIESVNAL, in the assay with HLA-A*32:01 (setting [15]), the dissociation constant Kd was 170 nM.
